In US20220017630A1 (JIANGSU SIMCERE PHARMACEUTICAL, published 2022):

Key:
[1] = molecular target: T1, Human TNFR2 recombinant protein (Sino 10417-H08H) (human, UniProt P20333 23-257); experiment: ELISA, coated antigen 0.5 ug/ml, antibody 12 ng/ml
T1 construct: also called hTNFR2 (His tag)
T1 sequence (looked up): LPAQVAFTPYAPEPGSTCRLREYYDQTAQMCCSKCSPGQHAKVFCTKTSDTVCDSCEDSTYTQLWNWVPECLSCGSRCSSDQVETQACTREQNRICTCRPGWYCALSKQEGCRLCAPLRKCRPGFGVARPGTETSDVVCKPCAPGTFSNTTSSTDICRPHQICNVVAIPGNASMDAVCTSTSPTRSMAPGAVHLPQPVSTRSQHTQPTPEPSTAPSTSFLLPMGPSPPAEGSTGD

[2] = molecular target: T2, cynomolgus TNFR2 (Sino 90102-C08H) (cynomolgus, UniProt A0A2K5VET2 132-366); experiment: ELISA, coated antigen 0.5 ug/ml, antibody 12 ng/ml
T2 construct: also called CynoTNFR2 (His tag)
T2 sequence: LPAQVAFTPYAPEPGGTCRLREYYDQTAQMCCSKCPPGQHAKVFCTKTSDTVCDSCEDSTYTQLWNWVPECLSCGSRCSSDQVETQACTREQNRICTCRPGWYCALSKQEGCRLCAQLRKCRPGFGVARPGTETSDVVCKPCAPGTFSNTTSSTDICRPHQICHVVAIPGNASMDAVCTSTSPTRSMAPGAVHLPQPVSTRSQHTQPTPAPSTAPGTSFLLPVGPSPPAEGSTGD

[3] = molecular target: T3, human TNFR2 (Novoprotein, Catalog No. C830) (human, UniProt P20333 23-257, limits assumed); experiment: blocking ELISA, TNFα-biotin on coated human TNFR2, antibody 2 nM
T3 construct: construct not described; also called TNFR2 protein
T3 sequence (looked up): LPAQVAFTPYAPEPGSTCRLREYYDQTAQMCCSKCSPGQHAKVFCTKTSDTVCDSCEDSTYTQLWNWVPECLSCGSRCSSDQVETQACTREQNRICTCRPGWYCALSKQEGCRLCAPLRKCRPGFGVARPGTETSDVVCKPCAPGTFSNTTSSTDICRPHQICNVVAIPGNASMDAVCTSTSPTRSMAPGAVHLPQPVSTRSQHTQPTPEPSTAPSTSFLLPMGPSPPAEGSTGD
Procedure: (§1) A microplate was pre-coated with 100 μl/well of 1 μg/ml human TNFR2 (Novoprotein, Catalog No. C830). […] After washing the plate, a Streptavidin-HRP working solution (1:10000 dilution) was added at 100 μl/well, and incubated with shaking at room temperature for 40 min. The plate was washed again, the HRP substrate TMB was added for color development, the termination solution was added to terminate the reaction, and the microplate reader was used to read the absorption value.

[4] = molecular target: T4, human TNFR2 on the cell surface (CHO-TNFR2 cells; human Treg cells) (human, UniProt P20333 23-461); experiment: flow cytometry, blocking of TNFα-biotin on CHO-TNFR2 cells
T4 construct: whole, on cells; The assay field of each row says which cells; also called TNFR2-CHO cell; TNFR2 on Treg cells
T4 sequence (looked up): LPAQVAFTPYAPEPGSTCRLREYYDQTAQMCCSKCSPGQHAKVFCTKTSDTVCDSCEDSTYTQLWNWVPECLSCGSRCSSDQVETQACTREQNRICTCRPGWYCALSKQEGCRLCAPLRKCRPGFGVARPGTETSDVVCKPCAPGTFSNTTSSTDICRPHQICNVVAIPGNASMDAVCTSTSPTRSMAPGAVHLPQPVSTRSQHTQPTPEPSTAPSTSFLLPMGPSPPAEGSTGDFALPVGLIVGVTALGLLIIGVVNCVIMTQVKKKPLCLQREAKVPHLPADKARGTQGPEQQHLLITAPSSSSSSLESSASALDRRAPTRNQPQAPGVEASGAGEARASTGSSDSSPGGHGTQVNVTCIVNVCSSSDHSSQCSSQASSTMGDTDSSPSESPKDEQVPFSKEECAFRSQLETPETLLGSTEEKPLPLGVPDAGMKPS

[5] = molecular target: T3, human TNFR2 (Novoprotein, Catalog No. …); experiment: blocking ELISA, TNFα-biotin on coated human TNFR2, antibody 20 nM
Procedure: as §1

[6] = molecular target: T4, human TNFR2 on the cell surface …; experiment: flow cytometry, blocking of TNFα-biotin on CHO-TNFR2 cells; against 002#
Procedure: (§2) CHO cells that stably overexpressed human TNFR2 were used for experiments. The cells were resuscitated and passaged until in good state, and the expression level of human TNFR2 on the cells was assessed by FACS. Compared to the isotype control, the assay could be carried out when the fold change of mean fluorescence intensity (MFI) was more than 100 times.
(§3) CHO-TNFR2 cells were digested, washed twice with DPBS and stained with Live/Dead (L/D) at room temperature for 20 min, and then seeded at 1×10⁵ cells/50 μl/well. […] The diluted antibodies were added 50 μl/well into wells pre-seeded with cells, and gently blown and mixed to make the final concentrations of the antibodies to 20, 6.67, 2.22, 0.74, 0.247, 0.08, 0.027 and 0 nM, respectively followed by incubation at 4° C. for 30 min. […] After washing twice with the staining buffer, 100 μl/well of PE-streptavidin was added and incubated at 4° C. for 30 min. After additional washing with the staining buffer twice, 150 μl resuspended cells was analyzed using an flow cytometry. Taking the logarithmic value of the antibody concentrations as abscissa and the corresponding MFI value as ordinate, the inhibition curve of the antibody was drawn, and the IC50 value was calculated by four parameters fitting.

[7] = molecular target: T3, human TNFR2 (Novoprotein, Catalog No. …); experiment: blocking ELISA, TNFα-biotin on coated human TNFR2; 002# OD / antibody OD x 100
Procedure: as §1

[8] = molecular target: T1, Human TNFR2 recombinant protein (Sino …); experiment: ELISA, coated antigen 0.5 ug/ml, antibody 28 ng/ml
Procedure: (§4) An microplate was pre-coated with 100 μl/well of 0.5 μg/ml human TNFR2 or cynomolgus TNFR2 (the same antigen protein as in Example 4). […] A mouse anti-human IgG Fc-HRP working solution (1:10000 dilution) was added to the plate at 100 μl/well after plate washing, and incubated with shaking at room temperature for 1.0 h. The plate was washed again, a HRP substrate TMB was added for color development prior to the termination of the reaction by adding termination solution. An microplate reader was used to read the absorption value.

[9] = molecular target: T2, cynomolgus TNFR2 (Sino 90102-C08H); experiment: ELISA, coated antigen 0.5 ug/ml, antibody 28 ng/ml
Procedure: as §4

[10] = molecular target: T4, human TNFR2 on the cell surface …; experiment: flow cytometry competition on CHO-TNFR2 cells: antibody first, then human TNFα-biotin, PE-streptavidin; MFI of bound TNFα-biotin [label on D00006), panel #125, table under the plot]
Procedure: as §2, §3

B1: TNFR2 antibody #309 (antibody, V domains shown)
VH: EVQLQESGAELVKPGASVKLSCKASGYTFTSYWIHWVKLRPGQGFEWIGEINPNNGGTDYNEKFKRKATLTVDKSSSTAYMELSSLTSEDSAIYYCTIDSMITTTWFAYWGQGTTVTVSS
VL: EIVMTQSQKLMSTVVGDRVSVTCKASQNVGTNVAWFQQKPGQSPKALINSASYRYSGVPDRFTGSGSGTDFTLTISSVQSEDLAEYFCQQYNSYPFTFGSGTKLEIK
[1]
  ELISA OD: 1.9 OD
[2]
  ELISA OD: 2.27 OD
[3]
  ELISA OD of antibodies to be tested (2 nM): 2.14 OD
[4]
  Antibody AUC: 27800
[5]
  ELISA OD of antibodies to be tested (20 nM): 0.34 OD
[6]
  IC50 Relative Value %: 70.7%
[7]
  % to 002# OD (2 nM): 75.9%
  % to 002# OD (20 nM): 96.6%

B2: TNFR2 antibody #125 (antibody, V domains shown)
VH: EVQLQESGGGLVQPGGSLNLSCAASGFAFSIYDLSWVRQTPEKRLEWVAYINNGGISTYYSDTVKGRFTISRDNAKNTLYLQMSSLKSEDTAMYYCVRGPFYGSANYFDYWGQGTTVTVSS
VL: DIQMTQSPASLSLSVGETVTITCRASENIYSNLAWYQQKQGKSPQLLVYDATKLAEGVPSRFSGSESGTQYSLKINSLQSEDFGTYYCQHFWVTPWTFGGGTKLEIK
[8]
  ELISA OD: 3.32 OD
[9]
  ELISA OD: 3.25 OD
[3]
  ELISA OD of antibodies to be tested (2 nM): 0.599 OD
[4]
  Antibody AUC: 37000
[5]
  ELISA OD of antibodies to be tested (20 nM): 0.161 OD
[6]
  IC50 Relative Value %: 165%
[7]
  % to 002# OD (2 nM): 113%
  % to 002# OD (20 nM): 154%
[10]
  IC50: 0.109 mg/L

B3: TNFR2 antibody #088 (antibody, V domains shown)
VH: EVQLQESGGGLVQPGGSLNLSCAASGFAFSTYDLSWVRQTPGKRLEWVAYINNGGISTYYSDTVKGRFTITRDNAKNTLYLQMSSLKSEDTAMYYCVRGPFYGSANYFDYWGQGTTVTVSS
VL: DILMTQSPASLSLFVGETVTITCRASENIYSNLAWYQQKQGKSPQLLVYDATKLAEGVPSRFSGSESGTQYSLKINSLQSEDFGTYYCQHFWVTPWTFGGGTKLEIK
[1]
  ELISA OD: 1.31 OD
[2]
  ELISA OD: 1.44 OD
[3]
  ELISA OD of antibodies to be tested (2 nM): 2.34 OD
[4]
  Antibody AUC: 24300
[5]
  ELISA OD of antibodies to be tested (20 nM): 0.35 OD
[6]
  IC50 Relative Value %: 41.5%
[7]
  % to 002# OD (2 nM): 69.3%
  % to 002# OD (20 nM): 94.1%
